The source of these data is patent US20240040982, “CEREAL GRAIN WITH THICKENED ALEURONE” (Commonwealth Scientific and Industrial Research Organisation, published 2024).

The target of this data set is T1, TA1 (OsmtSSB-1a) (Oryza sativa).
T1 chain: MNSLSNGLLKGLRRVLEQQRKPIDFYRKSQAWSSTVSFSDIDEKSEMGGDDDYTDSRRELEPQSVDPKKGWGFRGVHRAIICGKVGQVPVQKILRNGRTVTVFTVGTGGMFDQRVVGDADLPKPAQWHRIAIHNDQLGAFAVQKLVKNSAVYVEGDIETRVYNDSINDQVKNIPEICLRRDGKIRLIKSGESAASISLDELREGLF
The data set can be described thus: EMSA; 2 ug protein, 750 amol probe, room temperature 10 min; competed by 2x, 20x, 200x unlabelled ssDNA. Conditions: tags: N-terminal 6xHis (pET-30a), expressed in E. coli; label: 3' biotin (biotinylated CTP). The procedure:
The affinity of purified 6×His-TA1 protein for ssDNA was determined using an EMSA (Thermo Cat. No. 20148X) as described in general terms by Reddy et al. (2001). A 45-nucleotide single-stranded oligonucleotide (SEQ ID NO:60) was labelled at the 3′ end with biotinylated CTP (Thermo Cat. No. 89818) according to the manufacturer's instructions. Recombinant 6×His-TA1 protein (2 μg) was added to 750 attomoles of biotin-labelled oligonucleotide and the mixture was incubated at room temperature for 10 min. A control sample lacked the 6×His-TA1 protein was applied to lane 1 in FIG. 11. Separate reactions were carried out in the presence of a 60-bp double-stranded DNA (dsDNA; control fragment from Thermo EMSA kit) to determine if the mobility shift was specific for ssDNA. Binding reaction products were separated by electrophoresis in a 5% native polyacrylamide gel in 0.5×TBE (Bio-Rad) and transferred to a nylon membrane (Bio-Rad). DNA bands were visualized using streptavidin-conjugated horseradish peroxidase (Thermo).

Regarding ACTCCCTCTCCCTTGCGGATTCGAATGGTAGTACATTCTCTTCGA (ssDNA) [45-nt EMSA ssDNA probe], the binding result is on record as “binds”.
